From patent US20250388702A1 (Dana-Farber, published 2025)
One block for each binder: values may come before it.

Legend:
Human KIR3DL3 [1] = target: T1, Human KIR3DL3 (human, UniProt Q8N743 26-410); test: cell-based or functional assay
KIR2DS1 = target: T2, KIR2DS1 (UniProt Q14954 22-304, limits assumed); test: HEK293 cell microarray
T2 construct: whole, on cells
Procedure: (§1) Replicate microarray slides expressing a complete KIR family cDNA panel were fixed and blocked with buffer containing PBS/0.5% BSA and incubated for 1 hour at room temperature with individual KIR3DL3 mAb hybridoma supernatants at 1:5, 1:25 and 1:250 dilutions in PBS/0.1% BSA. Cell arrays were washed with PBS and incubated for 1 hour at room temperature in PBS/0.1% BSA containing AF647-conjugated goat anti-mouse IgG (H+L) (Life Technologies, A21235). Slides were washed with PBS, dried, and imaged for ZsGreen1 and AF647 fluorescence.
as §1, with “In Table 4, replicate” for “Replicate”, “the” for “a complete”, “panel (as in FIG. 1A, FIG. 2B, and FIG. 2C)” for “panel”

KIR2DS3 = target: T3, KIR2DS3 (UniProt Q14952 22-304, limits assumed); test: HEK293 cell microarray
T3 construct: whole, on cells
Procedure: as §1
as §1, with “In Table 4, replicate” for “Replicate”, “the” for “a complete”, “panel (as in FIG. 1A, FIG. 2B, and FIG. 2C)” for “panel”

KIR2DS2 = target: T4, KIR2DS2 (UniProt P43631 22-304, limits assumed); test: HEK293 cell microarray
T4 construct: whole, on cells
Procedure: as §1
as §1, with “In Table 4, replicate” for “Replicate”, “the” for “a complete”, “panel (as in FIG. 1A, FIG. 2B, and FIG. 2C)” for “panel”

KIR2DS5 = target: T5, KIR2DS5 (UniProt Q14953 22-304, limits assumed); test: HEK293 cell microarray
T5 construct: whole, on cells
Procedure: as §1
as §1, with “In Table 4, replicate” for “Replicate”, “the” for “a complete”, “panel (as in FIG. 1A, FIG. 2B, and FIG. 2C)” for “panel”

KIR3DL1 = target: T6, KIR3DL1 (UniProt P43629 22-444, limits assumed); test: HEK293 cell microarray
T6 construct: whole, on cells
Procedure: as §1
as §1, with “In Table 4, replicate” for “Replicate”, “the” for “a complete”, “panel (as in FIG. 1A, FIG. 2B, and FIG. 2C)” for “panel”

KIR3DL2 = target: T7, KIR3DL2 (UniProt P43630 22-455, limits assumed); test: HEK293 cell microarray
T7 construct: whole, on cells
Procedure: as §1
as §1, with “In Table 4, replicate” for “Replicate”, “the” for “a complete”, “panel (as in FIG. 1A, FIG. 2B, and FIG. 2C)” for “panel”

KIR2DL4 = target: T8, KIR2DL4 (UniProt Q99706 22-377, limits assumed); test: HEK293 cell microarray
T8 construct: whole, on cells
Procedure: as §1
as §1, with “In Table 4, replicate” for “Replicate”, “the” for “a complete”, “panel (as in FIG. 1A, FIG. 2B, and FIG. 2C)” for “panel”

KIR3DS1 = target: T9, KIR3DS1 (UniProt Q14943 22-382, limits assumed); test: HEK293 cell microarray
T9 construct: whole, on cells
Procedure: as §1
as §1, with “In Table 4, replicate” for “Replicate”, “the” for “a complete”, “panel (as in FIG. 1A, FIG. 2B, and FIG. 2C)” for “panel”

KIR2DL3 = target: T10, KIR2DL3 (UniProt P43628 22-341, limits assumed); test: HEK293 cell microarray
T10 construct: whole, on cells
Procedure: as §1
as §1, with “In Table 4, replicate” for “Replicate”, “the” for “a complete”, “panel (as in FIG. 1A, FIG. 2B, and FIG. 2C)” for “panel”

KIR2DL2 = target: T11, KIR2DL2 (UniProt P43627 22-348, limits assumed); test: HEK293 cell microarray
T11 construct: whole, on cells
Procedure: as §1
as §1, with “In Table 4, replicate” for “Replicate”, “the” for “a complete”, “panel (as in FIG. 1A, FIG. 2B, and FIG. 2C)” for “panel”

KIR2DL1 = target: T12, KIR2DL1 (UniProt P43626 22-348, limits assumed); test: HEK293 cell microarray
T12 construct: whole, on cells
Procedure: as §1
as §1, with “In Table 4, replicate” for “Replicate”, “the” for “a complete”, “panel (as in FIG. 1A, FIG. 2B, and FIG. 2C)” for “panel”

KIR2DL5A = target: T13, KIR2DL5A (UniProt Q8N109 22-375, limits assumed); test: HEK293 cell microarray
T13 construct: whole, on cells
Procedure: as §1
as §1, with “In Table 4, replicate” for “Replicate”, “the” for “a complete”, “panel (as in FIG. 1A, FIG. 2B, and FIG. 2C)” for “panel”

KIR2DL5B = target: T14, KIR2DL5B (UniProt Q8NHK3 22-375, limits assumed); test: HEK293 cell microarray
T14 construct: whole, on cells
Procedure: as §1
as §1, with “In Table 4, replicate” for “Replicate”, “the” for “a complete”, “panel (as in FIG. 1A, FIG. 2B, and FIG. 2C)” for “panel”

Human KIR3DL3 [2] = target: T1, Human KIR3DL3; test: flow cytometry, KIR3DL3-transfected 300.19 cells
Human KIR3DL3 [3] = target: T1, Human KIR3DL3; test: flow cytometry, KIR3DL3-transfected 300.19 cells; remark: listed apart in the source
Human KIR3DL3 [4] = target: T1, Human KIR3DL3; test: flow cytometry; blockade of HHLA2-mIgG2a binding to KIR3DL3-transfected cells
Procedure: (§2) The indicated concentrations of KIR3DL3 mAbs were pre-incubated with KIR3DL3 transfected 300.19 cells for 30 minutes at 4° C. […] EC50 and IC50 analysis were conducted using GraphPad Prism®.

Human KIR3DL3 [5] = target: T1, Human KIR3DL3; test: flow cytometry; blockade of HHLA2-mIgG2a binding to KIR3DL3-transfected 300.19 cells
Procedure: as §2

T1 sequence (Q8N743 26-410 H321N limits assumed): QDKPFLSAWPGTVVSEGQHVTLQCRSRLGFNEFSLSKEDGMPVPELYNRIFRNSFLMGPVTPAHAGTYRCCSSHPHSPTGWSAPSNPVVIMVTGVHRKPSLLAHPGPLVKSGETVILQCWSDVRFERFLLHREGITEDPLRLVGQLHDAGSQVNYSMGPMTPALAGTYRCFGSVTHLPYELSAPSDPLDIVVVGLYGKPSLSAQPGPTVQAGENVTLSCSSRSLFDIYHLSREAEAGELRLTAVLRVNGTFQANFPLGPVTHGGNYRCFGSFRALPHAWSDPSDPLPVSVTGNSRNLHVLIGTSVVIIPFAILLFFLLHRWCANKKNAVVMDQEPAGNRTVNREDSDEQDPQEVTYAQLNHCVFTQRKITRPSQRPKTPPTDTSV
T12 sequence (P43626 22-348 limits assumed): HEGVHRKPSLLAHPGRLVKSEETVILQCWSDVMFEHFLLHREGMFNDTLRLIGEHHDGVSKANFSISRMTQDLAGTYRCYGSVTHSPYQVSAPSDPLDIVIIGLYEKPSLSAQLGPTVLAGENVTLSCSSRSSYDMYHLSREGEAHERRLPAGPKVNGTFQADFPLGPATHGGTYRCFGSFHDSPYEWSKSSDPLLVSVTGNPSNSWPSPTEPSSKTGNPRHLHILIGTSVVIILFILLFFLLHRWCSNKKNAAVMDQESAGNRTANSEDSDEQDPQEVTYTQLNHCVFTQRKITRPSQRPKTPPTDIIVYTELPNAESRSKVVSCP
T4 sequence (P43631 22-304 limits assumed): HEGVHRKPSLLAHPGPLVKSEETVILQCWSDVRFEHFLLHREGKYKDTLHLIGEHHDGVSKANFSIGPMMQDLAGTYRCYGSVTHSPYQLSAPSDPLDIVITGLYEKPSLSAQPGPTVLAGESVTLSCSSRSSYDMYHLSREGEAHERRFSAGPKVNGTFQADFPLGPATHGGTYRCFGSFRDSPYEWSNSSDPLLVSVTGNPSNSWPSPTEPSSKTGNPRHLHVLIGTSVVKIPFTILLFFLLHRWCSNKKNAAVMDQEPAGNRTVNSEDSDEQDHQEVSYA
T14 sequence (Q8NHK3 22-375 limits assumed): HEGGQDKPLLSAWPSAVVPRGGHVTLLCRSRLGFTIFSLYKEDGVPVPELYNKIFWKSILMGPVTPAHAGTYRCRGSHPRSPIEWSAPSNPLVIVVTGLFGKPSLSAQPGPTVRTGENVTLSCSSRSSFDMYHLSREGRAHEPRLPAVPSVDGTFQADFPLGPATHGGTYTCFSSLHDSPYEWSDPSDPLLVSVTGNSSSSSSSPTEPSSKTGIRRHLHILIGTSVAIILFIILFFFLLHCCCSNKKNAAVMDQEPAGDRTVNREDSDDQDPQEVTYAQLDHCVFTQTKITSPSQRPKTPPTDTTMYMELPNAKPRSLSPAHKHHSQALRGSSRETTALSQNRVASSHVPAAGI
T9 sequence (Q14943 22-382 limits assumed): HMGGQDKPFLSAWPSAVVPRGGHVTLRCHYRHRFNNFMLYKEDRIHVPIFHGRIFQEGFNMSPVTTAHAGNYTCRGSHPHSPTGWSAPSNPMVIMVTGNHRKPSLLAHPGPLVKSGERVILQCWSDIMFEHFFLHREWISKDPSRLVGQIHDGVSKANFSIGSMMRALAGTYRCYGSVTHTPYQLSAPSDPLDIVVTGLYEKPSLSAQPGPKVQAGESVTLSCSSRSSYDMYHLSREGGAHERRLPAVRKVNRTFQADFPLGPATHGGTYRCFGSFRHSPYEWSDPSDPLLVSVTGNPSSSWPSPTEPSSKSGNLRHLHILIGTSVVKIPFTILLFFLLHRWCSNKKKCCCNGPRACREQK
T13 sequence (Q8N109 22-375 limits assumed): as the sequence (Q8NHK3 22-375 limits assumed) above, with D152N, S174G counted along it
T11 sequence (P43627 22-348 limits assumed): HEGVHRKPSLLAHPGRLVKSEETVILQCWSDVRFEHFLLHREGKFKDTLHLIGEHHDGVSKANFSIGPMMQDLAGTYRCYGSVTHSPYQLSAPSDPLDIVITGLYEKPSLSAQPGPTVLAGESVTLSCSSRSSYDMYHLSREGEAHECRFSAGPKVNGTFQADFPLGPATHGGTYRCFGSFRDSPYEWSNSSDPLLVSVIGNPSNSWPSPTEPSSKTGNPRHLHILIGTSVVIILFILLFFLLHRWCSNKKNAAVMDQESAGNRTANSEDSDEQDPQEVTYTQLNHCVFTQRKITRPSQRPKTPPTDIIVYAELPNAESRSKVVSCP
T10 sequence (P43628 22-341 limits assumed): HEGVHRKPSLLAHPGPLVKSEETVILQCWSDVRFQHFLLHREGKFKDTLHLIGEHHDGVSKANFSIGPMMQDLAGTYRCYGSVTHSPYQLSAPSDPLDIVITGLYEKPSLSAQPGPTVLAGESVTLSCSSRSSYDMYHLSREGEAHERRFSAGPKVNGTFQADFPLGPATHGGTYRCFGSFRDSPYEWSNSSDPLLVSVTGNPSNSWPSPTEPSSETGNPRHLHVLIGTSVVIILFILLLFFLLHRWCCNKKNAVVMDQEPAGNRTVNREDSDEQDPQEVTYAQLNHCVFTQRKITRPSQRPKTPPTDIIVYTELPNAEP
T8 sequence (Q99706 22-377 limits assumed): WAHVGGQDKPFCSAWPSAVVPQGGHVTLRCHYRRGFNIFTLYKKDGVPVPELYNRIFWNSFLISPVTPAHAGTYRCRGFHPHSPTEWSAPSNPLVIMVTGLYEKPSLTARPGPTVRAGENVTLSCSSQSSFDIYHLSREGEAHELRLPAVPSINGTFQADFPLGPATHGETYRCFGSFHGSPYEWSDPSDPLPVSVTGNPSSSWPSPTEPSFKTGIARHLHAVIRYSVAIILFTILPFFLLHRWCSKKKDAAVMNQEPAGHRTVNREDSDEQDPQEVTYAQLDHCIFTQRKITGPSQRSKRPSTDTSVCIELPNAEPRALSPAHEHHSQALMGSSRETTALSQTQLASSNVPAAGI
T5 sequence (Q14953 22-304 limits assumed): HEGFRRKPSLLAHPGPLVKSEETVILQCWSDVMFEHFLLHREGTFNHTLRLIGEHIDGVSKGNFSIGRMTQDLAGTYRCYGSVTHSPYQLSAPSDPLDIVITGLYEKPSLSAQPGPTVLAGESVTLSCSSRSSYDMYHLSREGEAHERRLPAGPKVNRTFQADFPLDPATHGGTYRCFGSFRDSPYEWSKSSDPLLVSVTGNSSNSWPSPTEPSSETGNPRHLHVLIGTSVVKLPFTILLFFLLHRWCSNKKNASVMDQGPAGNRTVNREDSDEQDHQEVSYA
T2 sequence (Q14954 22-304 limits assumed): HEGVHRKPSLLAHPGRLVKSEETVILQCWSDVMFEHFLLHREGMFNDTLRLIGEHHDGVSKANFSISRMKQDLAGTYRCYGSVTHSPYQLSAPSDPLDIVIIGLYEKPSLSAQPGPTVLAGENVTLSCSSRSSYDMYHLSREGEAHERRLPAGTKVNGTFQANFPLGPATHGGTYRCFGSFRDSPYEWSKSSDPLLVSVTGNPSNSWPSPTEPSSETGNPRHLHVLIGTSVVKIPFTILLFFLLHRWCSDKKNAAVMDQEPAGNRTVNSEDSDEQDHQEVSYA
T7 sequence (P43630 22-455 limits assumed): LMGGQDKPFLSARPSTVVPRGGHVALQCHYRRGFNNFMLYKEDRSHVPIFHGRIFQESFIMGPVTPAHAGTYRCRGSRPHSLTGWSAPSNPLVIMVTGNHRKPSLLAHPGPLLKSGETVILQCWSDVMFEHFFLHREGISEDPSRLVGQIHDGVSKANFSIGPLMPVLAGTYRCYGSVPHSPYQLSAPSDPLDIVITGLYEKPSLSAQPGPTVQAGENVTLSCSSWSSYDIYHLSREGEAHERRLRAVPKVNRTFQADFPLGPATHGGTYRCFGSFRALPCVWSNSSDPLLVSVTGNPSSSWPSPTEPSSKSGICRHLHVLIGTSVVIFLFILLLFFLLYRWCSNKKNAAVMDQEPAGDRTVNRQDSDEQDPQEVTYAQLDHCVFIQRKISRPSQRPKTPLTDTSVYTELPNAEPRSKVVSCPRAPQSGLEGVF
T6 sequence (P43629 22-444 limits assumed): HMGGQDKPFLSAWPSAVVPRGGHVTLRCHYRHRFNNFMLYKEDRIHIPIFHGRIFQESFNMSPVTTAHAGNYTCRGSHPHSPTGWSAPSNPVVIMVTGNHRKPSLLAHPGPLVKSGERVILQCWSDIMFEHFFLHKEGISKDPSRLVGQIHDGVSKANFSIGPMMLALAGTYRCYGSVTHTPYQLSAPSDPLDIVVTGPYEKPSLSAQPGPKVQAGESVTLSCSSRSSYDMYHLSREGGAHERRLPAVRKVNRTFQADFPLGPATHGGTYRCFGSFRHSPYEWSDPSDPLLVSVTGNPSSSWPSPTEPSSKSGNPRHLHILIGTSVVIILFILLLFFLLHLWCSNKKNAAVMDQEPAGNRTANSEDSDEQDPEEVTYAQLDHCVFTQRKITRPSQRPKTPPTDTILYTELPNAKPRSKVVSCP
T3 sequence (Q14952 22-304 limits assumed): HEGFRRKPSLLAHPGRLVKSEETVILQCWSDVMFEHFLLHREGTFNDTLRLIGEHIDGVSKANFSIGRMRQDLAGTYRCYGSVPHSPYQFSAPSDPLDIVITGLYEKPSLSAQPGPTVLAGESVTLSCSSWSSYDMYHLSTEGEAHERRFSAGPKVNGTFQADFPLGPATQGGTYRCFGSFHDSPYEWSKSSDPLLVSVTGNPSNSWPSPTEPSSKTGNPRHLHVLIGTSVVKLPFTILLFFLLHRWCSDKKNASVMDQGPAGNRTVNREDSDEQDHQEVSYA

Jurkat IL-2 Luciferase, Fold Activation (Human KIR3DL3 [1]): 1.2 fold | Kd (Human KIR3DL3 [2]): 1 µg/mL | EC50 (Human KIR3DL3 [3]): 1 µg/mL | IC50 (Human KIR3DL3 [4]): > 10 µg/mL | IC50 (Human KIR3DL3 [5]): 27.5 µg/mL
B1: KIR3DL3 mAb 574.2.8F7.1.7.4 (antibody, IgG1, V domains shown)
VH: DVKLVESGGGLVKPGGSLKLSCAASGFTFSSYCMSWVRQTPEKRLEWVATISSGGNYIYYPDSVKGRFTISRDIAKNTLYLQMSSLKSEDTAMYYCTRGGYDERYFDYWGQGTILTVSS
VL: DIQMTQSPASLSASVGETVTITCRASENIYSYLAWYQQKQGKSPQLLVYNAKTLTEGMPSRFSGSGSGTQFSLRINSLQPEDFGSYYCQHHHGTPRTFGGGTKLEIK
notes: Mouse hybridoma antibody, IgG1; only variable domains given; also called AVS-3700
binding result (KIR2DS1): no binding (tested: supernatant 1:5, 1:25, 1:250) | binding result (KIR2DS3): no binding (tested: supernatant 1:5, 1:25, 1:250) | binding result (KIR2DS2): no binding (tested: supernatant 1:5, 1:25, 1:250) | binding result (KIR2DS5): no binding (tested: supernatant 1:5, 1:25, 1:250) | binding result (KIR3DL1): no binding (tested: supernatant 1:5, 1:25, 1:250) | binding result (KIR3DL2): no binding (tested: supernatant 1:5, 1:25, 1:250) | binding result (KIR2DL4): no binding (tested: supernatant 1:5, 1:25, 1:250) | binding result (KIR3DS1): no binding (tested: supernatant 1:5, 1:25, 1:250) | binding result (KIR2DL3): no binding (tested: supernatant 1:5, 1:25, 1:250) | binding result (KIR2DL2): no binding (tested: supernatant 1:5, 1:25, 1:250) | binding result (KIR2DL1): no binding (tested: supernatant 1:5, 1:25, 1:250) | binding result (KIR2DL5A): no binding (tested: supernatant 1:5, 1:25, 1:250) | binding result (KIR2DL5B): no binding (tested: supernatant 1:5, 1:25, 1:250)

Jurkat IL-2 Luciferase Activation, EC50 (Human KIR3DL3 [1]): 77 µg/mL | Jurkat IL-2 Luciferase, Fold Activation (Human KIR3DL3 [1]): 8.2 fold | Kd (Human KIR3DL3 [2]): 0.77 µg/mL | IC50 (Human KIR3DL3 [5]): 0.32 µg/mL
B2: KIR3DL3 mAb 574.2.1C7.D2.6.5 (antibody, IgG1, V domains shown)
VH: QVQLQQSGAELMKPGASVKISCKATGYTFSNYWIEWIKQRPGHGLEWIGEILPGSGSTNYNEKFKGKATFTAATSSNTAYMQLSSLTSEDSAVYYCARRVPDYYGSRYYFDYWGQGTTLTVSS
VL: NIVMTQSPKSMSMSVGERVTLSCKASENVGIYVSWYQQKPEQSPKLLIYGASNRYTGVPDRFTGSGSATDFTLTISSVQAEDLADYHCGQSYNYPFTFGSGTKLEIK
notes: Mouse hybridoma antibody, IgG1; only variable domains given; also called AVS-3698
binding result (KIR2DS1): no binding (tested: supernatant 1:5, 1:25, 1:250) | binding result (KIR2DS3): no binding (tested: supernatant 1:5, 1:25, 1:250) | binding result (KIR2DS2): no binding (tested: supernatant 1:5, 1:25, 1:250) | binding result (KIR2DS5): no binding (tested: supernatant 1:5, 1:25, 1:250) | binding result (KIR3DL1): no binding (tested: supernatant 1:5, 1:25, 1:250) | binding result (KIR3DL2): no binding (tested: supernatant 1:5, 1:25, 1:250) | binding result (KIR2DL4): no binding (tested: supernatant 1:5, 1:25, 1:250) | binding result (KIR3DS1): no binding (tested: supernatant 1:5, 1:25, 1:250) | binding result (KIR2DL3): no binding (tested: supernatant 1:5, 1:25, 1:250) | binding result (KIR2DL2): no binding (tested: supernatant 1:5, 1:25, 1:250) | binding result (KIR2DL1): no binding (tested: supernatant 1:5, 1:25, 1:250) | binding result (KIR2DL5A): no binding (tested: supernatant 1:5, 1:25, 1:250) | binding result (KIR2DL5B): no binding (tested: supernatant 1:5, 1:25, 1:250)
